Measurements reported in US20240400689A1 (ANTENGENE BIOLOGICS, published 2024).
Residue numbers refer to the chain shown, from its start.

T1: human CD276 protein (human, UniProt Q5ZPR3 29-534)
T1 construct: whole, on cells; for SKOV3 and the other cancer lines the protein is the cells' own; also called B7-H3; B7H3
T1 sequence (looked up): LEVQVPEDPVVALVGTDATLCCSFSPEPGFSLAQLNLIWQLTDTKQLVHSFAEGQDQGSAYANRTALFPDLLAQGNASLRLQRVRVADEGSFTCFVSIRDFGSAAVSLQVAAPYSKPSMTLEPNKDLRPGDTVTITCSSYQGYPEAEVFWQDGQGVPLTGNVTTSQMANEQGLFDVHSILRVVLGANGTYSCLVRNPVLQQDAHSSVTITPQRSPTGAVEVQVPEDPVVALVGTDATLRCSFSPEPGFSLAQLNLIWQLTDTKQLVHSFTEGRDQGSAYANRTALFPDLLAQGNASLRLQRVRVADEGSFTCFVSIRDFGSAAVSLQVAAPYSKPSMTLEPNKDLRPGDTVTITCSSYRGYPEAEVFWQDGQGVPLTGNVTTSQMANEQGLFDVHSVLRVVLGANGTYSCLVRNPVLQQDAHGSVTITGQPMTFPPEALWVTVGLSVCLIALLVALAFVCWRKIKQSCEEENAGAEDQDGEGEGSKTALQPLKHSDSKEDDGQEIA

T2: HUMAN B7H3 (Biacore analyte) (human, UniProt Q5ZPR3 29-461, limits assumed)
T2 construct: also called hB7H3
T2 sequence (looked up): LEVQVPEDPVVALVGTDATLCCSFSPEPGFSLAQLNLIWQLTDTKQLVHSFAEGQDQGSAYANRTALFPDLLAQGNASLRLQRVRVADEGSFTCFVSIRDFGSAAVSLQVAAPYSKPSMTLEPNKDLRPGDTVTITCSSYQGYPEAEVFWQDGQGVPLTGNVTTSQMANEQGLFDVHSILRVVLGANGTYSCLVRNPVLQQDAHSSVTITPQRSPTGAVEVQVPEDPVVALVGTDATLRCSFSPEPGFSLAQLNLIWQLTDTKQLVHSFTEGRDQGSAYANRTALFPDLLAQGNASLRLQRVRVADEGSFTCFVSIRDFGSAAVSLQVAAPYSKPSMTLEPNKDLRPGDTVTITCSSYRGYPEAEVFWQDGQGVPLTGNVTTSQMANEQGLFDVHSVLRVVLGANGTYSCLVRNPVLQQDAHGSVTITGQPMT

B1: 30-C7-C11-D4 (human IgG1 chimeric antibody) (antibody, V domains shown)
VH: EVQLVESGPGLVKPSQSLSLTCTVTGYSITSDYAWNWIRQFPGNKLEWMGYISHSGSTSYNPSLKSRISITRDTSKNQFFLQLNSVTTEDTATYYCARSLGRRWYFDVWGAGTTVTVSS
VL: DIVMTQSPSSLAMSVGQKVTLSCKSSQSLLNSSTQKNYLAWYQQKPGQSPKLLVYFASTRDSGVPDRFIGSGSGTEFTLTISSVQAEDLADYFCQQHYIIPFTFGAGTKLEIK
notes: human IgG1 chimeric antibody of the mouse clone
B2: 25-C8-D7-C5 (human IgG1 chimeric antibody) (antibody, V domains shown)
VH: EVQLQESGGGLVKPGGSLKFSCAASGFTFSTYAMSWVRQTPEKRLEWVATISGGGIDTYYPDSVKGRFTISRDNAKNTLYLQMNSLRSEDTAMYYCARQGSKGWGAMDYWGQGTSVTVSS
VL: QIVLTQSPAIMSASPGEKVTMTCRASSSVSFMHWYQQKSGTSPKRWIYETSKLASGVPDRFSGSGSGTSYSLTISSMEAEDAATYYCQQWSSNPLTFGAGTKLELK
notes: as for B1
B3: 15-C8-B5-G7 (human IgG1 chimeric antibody) (antibody, V domains shown)
VH: QVQLQQPGAELVKPGASVKLSCKASDYTFTSHWMHWVKQRPGQGLEWIGMIHPNSGTTHYNENFKNKATLTVDNSSSTAYMQLSSLTSEDSAVYYCAWGSSNSYFYAMAYWGQGTSVTVSS
VL: QAVVTQESALTTSPGETVTLTCRSSTGAVTTSNYANWVQEKPAHLFTGLIGGTNNRAPGVPARFSGSLIGDKAALTITGAQTEDEAIYFCALWFSNHLVFGGGTKLTVL
notes: as for B1
B4: 25-D3-G4-C6 (human IgG1 chimeric antibody) (antibody, V domains shown)
VH: EIQLQQTGPELVKPGASVKISCKASGYSFTDYIILWVKQSHGMSLEWIGNINPYYNSTYYNLKFKGKATLTVDKSSSTAYMQLDSLTSEDSAVYYCARDSFDWYFGVWGAGTTVTVSS
VL: DVVMTQTPLSLPVSLGDQASISCRSSQSLVHSNGNTYLHWYLQKPGQSPKLLIYKVSNRFSGVPDRFSGSGSGTDFTLKISRVETEDLGIYFCSQSTHVPPLTFGAGTKLELK
notes: as for B1
B5: 7-E1-F8-F6 (human IgG1 chimeric antibody) (antibody, V domains shown)
VH: QVQLQQSGPELVKPGASVQMSCKASGYTFTDYVISWVNQRTGQGLEWIGEIYPRSGNTYYNEKFKGKATLTADKSSNTAYMQLSSLTSEDSAVYFCARFDIAYSFDYWGQGTTLTVSS
VL: DVVMTQTPLSLPVSLGDQASISCRSTQSLVHSNGVTYLHWYLQKPGQSPKLLIYKVSNRFSGVPDRFSGSGSGTDFTLKISRVEAEDLGVYFCSQGTHVPWTFGGGTKLEIK
notes: as for B1
B6: 6-D8-E7-A11 (human IgG1 chimeric antibody) (antibody, V domains shown)
VH: QVHLQQPGAELVKPGASVKLSCKASGYTFTNYWMHWVKRRPGQGLEWIGMIHPNSGTTSFNEKFKSKATLTVDKSSSTAYMQLSSLTSEDSAVYYCAGYYGSSFSWFTYWGQGTLVTVSA
VL: QAVVTQESALTTSPGGTVILTCRSSTGAVTTSNFANWVQEKPDHLFTGLIGGTSNRAPGVPVRFSGSLIGDKAALTITGAQTEDDAMYFCALWYSTHYVFGGGTKVTVL
notes: as for B1
B7: 18-F9-D8-G7 (human IgG1 chimeric antibody) (antibody, V domains shown)
VH: EVQLQQSGPELVRPGVSVKISCKGSGYTFTDYAMHWVKQSHAQSLEWIGIINTYSGDTNYNQKFKGKATMTVDKSSSTAYMGLARLTSEDSAIFYCARGGGNYPYWYFDVWGAGTTVTVSS
VL: ENVLTQSPAIMSASPGEKVTMTCRASSSVSSSYLHWYQQKSGDSPKLWIYSTSNLASGVPARFSGSGSGTSYSLTISSVEAEDAATYYCQQFSVYPLTFGAGTKLEIK
notes: as for B1
B8: 16-C6-F7-F5 (human IgG1 chimeric antibody) (antibody, V domains shown)
VH: QIQLVQSGPEVKKPGETVKISCKASGYTFTKYGINWVKQAPGEGLKWMGWIWTYTGKPTYGDDFKGRFAFSLETSASTAYLQISDLKIEDMATYFCARDDGYYYTMNYWGQGTSVTVSS
VL: B5 VL with V2I, T26S, V30L, S32T, V35D, P45A, S48P, G96S, V99I
notes: as for B1
B9: mVH-mVL1-30 (antibody, V domains shown)
VH: B1 VH
VL: B1 VL with N31Q
B10: hVH1-hVL5-30 (antibody, V domains shown)
VH: QVQLQESGPGLVKPSQTLSLTCTVSGYSITSDYAWNWIRQHPGKGLEWIGYISHSGSTSYNPSLKSRVTISRDTSKNQFSLKLSSVTAADTAVYYCARSLGRRWYFDVWGQGTTVTVSS
VL: DIVMTQSPLSLPVTPGEPASISCKSSQSLLNSSTQKNYLAWYLQKPGQSPQLLIYFASTRDSGVPDRFSGSGSGTDFTLKISRVEAEDLGVYFCQQHYIIPFTFGQGTKLEIK
B11: hVH3-hVL5-30 (antibody, V domains shown)
VH: B10 VH with Q16E, H41P
VL: B10 VL
B12: hVH4-hVL5-30 (antibody, V domains shown)
VH: B10 VH with T23A, S25Y, H41P
VL: B10 VL
B13: hVH2-hVL1-30 (antibody, V domains shown)
VH: B10 VH with Q16E, H41P
VL: DIQMTQSPSSLSASVGDRVTITCKSSQSLLNSSTQKNYLAWYQQKPGKAPKLLIYFASTRDSGVPSRFSGSGSGTDFTLTISSLQPEDLATYFCQQHYIIPFTFGQGTKLEIK
B14: hVH3-hVL2-30 (antibody, V domains shown)
VH: B10 VH with Q16E, H41P
VL: DIVMTQSPDSLAVSLGERATINCKSSQSLLNSSTQKNYLAWYQQKPGQPPKLLIYFASTRDSGVPDRFSGSGSGTDFTLTISSLQAEDLAVYFCQQHYIIPFTFGQGTKLEIK
B15: hVH4-hVL2-30 (antibody, V domains shown)
VH: B10 VH with T23A, S25Y, H41P
VL: B14 VL

target: T1, human CD276 protein; test: FACS on SKOV3 cells
Outline: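 Human IgG1 chimeric antibodies were tested for binding to trypsin-detached SKOV3 ovarian cancer cells by flow cytometry, with cells washed in FACS buffer and kept in the dark before acquisition. Titration read-out was MFI plotted against antibody concentration (nM).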

Row | Binder | EC50 | MFI (Max)
1 | B1 | 0.282 µg/mL | 4270
2 | B2 | 2.03 µg/mL | 3480
3 | B3 | 0.293 µg/mL | 2140
4 | B4 | 1.27 µg/mL | 3450
5 | B5 | 0.982 µg/mL | 3380
6 | B6 | 0.402 µg/mL | 2830
7 | B7 | 0.286 µg/mL | 4610
8 | B8 | 0.186 µg/mL | 5350

target: T1, human CD276 protein; test: cell-based or functional assay

Row | Binder | EC50 of antibody induced CDC effect | Top cytotoxicity (%), CDC
9 | B1 | 3.21 nM | 60.3%
10 | B2 | 2.42 nM | 91.4%
11 | B3 | 7.54 nM | 86.1%
12 | B4 | 2.41 nM | 89.7%
13 | B5 | 1.69 nM | 91.9%
14 | B6 | 1.57 nM | 92.5%
15 | B7 | 2.44 nM | 70.3%
16 | B8 | 1.28 nM | 92.1%

target: T1, human CD276 protein; test: FACS titration on SKOV3 cells (MFI against Conc. (nM)); unit taken from the concentration axis

Row | Binder | EC50
17 | B1 | 7.98 nM
18 | B9 | 9.64 nM
19 | B10 | 11.3 nM
20 | B11 | 6.37 nM
21 | B12 | 8.52 nM
22 | B13 | 9.51 nM
23 | B14 | 5.93 nM
24 | B15 | 9.77 nM

target: T1, human CD276 protein; test: cell-based or functional assay; remark: another data set of the same source

Row | Binder | EC50 of antibody induced ADCC effect on SKOV3
25 | B1 | 0.0327 µg/mL
26 | B2 | 0.123 µg/mL
27 | B3 | 0.697 µg/mL
28 | B4 | 0.0372 µg/mL
29 | B5 | 0.0177 µg/mL
30 | B6 | 0.0668 µg/mL
31 | B7 | 0.503 µg/mL
32 | B8 | 0.00664 µg/mL

target: T2, HUMAN B7H3 (Biacore analyte); test: SPR, Biacore 8K, antibody captured, B7H3 as analyte, 1:1 binding

Row | Binder | Kd | koff | kon
33 | B2 | 1.2 nM | 0.000243 s⁻¹ | 203000 M⁻¹ s⁻¹
34 | B3 | 0.399 nM | 0.000196 s⁻¹ | 492000 M⁻¹ s⁻¹
35 | B4 | 2.31 nM | 0.00025 s⁻¹ | 108000 M⁻¹ s⁻¹
36 | B5 | 0.855 nM | 0.000222 s⁻¹ | 260000 M⁻¹ s⁻¹
37 | B6 | 0.749 nM | 0.000348 s⁻¹ | 464000 M⁻¹ s⁻¹
38 | B7 | 0.489 nM | 0.000239 s⁻¹ | 489000 M⁻¹ s⁻¹
39 | B8 | 0.645 nM | 0.000243 s⁻¹ | 377000 M⁻¹ s⁻¹

target: T1, human CD276 protein; test: cell-based or functional assay; remark: another data set of the same source

Row | Binder | IC50 of indirect ADC cytotoxicity on SKOV3
40 | B2 | 0.018 nM
41 | B3 | 0.008 nM
42 | B4 | 0.023 nM
43 | B5 | 0.028 nM
44 | B6 | 0.008 nM
45 | B7 | 0.014 nM
46 | B8 | 0.009 nM
